# Measurements: doi:10.1101/2025.03.20.644192
# Biological target: Chicken CapZ complex, full length α/β (chicken) (UniProt P13127)
# Test: ITC
substance,measurement,value
"RavB, full length, untagged (RavB^WT) (natural protein)",Kd,10.8 nM
